{"source": "paper PMC8204385", "about": "(Biophysical Journal, 2021)", "biological_target": "T1, human SHP-1 (Homo sapiens, UniProt P29350)", "T1 construct": "6xHis (N); made in house; host or cells: Escherichia coli BL21-CodonPlus (DE3)-RIPL", "T1 sequence (P29350 whole entry)": "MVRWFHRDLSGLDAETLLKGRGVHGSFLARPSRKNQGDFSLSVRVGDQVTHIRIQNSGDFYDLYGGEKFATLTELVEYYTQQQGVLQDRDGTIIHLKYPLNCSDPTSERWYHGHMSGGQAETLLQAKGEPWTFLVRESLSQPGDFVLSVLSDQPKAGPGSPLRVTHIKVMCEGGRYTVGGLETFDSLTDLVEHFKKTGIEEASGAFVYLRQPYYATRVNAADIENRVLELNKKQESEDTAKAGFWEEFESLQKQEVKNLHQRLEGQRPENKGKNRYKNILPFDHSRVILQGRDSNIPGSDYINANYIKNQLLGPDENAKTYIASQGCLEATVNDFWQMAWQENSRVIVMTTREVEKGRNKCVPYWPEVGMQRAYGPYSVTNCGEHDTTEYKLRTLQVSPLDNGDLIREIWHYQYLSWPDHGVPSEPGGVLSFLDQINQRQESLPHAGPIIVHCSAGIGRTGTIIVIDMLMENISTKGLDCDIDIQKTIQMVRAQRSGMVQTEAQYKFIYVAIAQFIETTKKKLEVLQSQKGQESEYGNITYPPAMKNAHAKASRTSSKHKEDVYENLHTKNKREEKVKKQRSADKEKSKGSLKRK", "assay": "SPR-based assay for tethered SHP-1 reactions on immobilised phosphopeptides, extended MPDPDE model fit", "format": "binding", "conditions": "37°C; vertical intercept of regression of L^2 vs number of PEG linkers, all data except PEG0", "note": "Where “and” joins values, the source holds several entries; their conditions need not be identical. Equal entries are not always repeated."}
{"substance": "SHP-1: Human tyrosine phosphatase SHP-1 with an N-terminal 6× His tag produced in Escherichia coli", "values": [{"measurement": "molecular reach of SHP-1 (LSHP-1)", "value": "13.0 nm and 13.0 ± 0.8 nm"}]}
